Reference: the supplement of paper PMC6757056
± gives the standard deviation of the averaged measurements.

B1: library; a variant is named by its letters at N, in order (parent)
chain: GCUGUCACCGGUGUAUUACCCUAGUGGUCGACCGGUCUGAUGAGUCUNNNNNNAGACGAAACAGC

Tests used:
hypoxanthine [1] = variants of: B1; assay: normalized RNA/DNA level with ligand (relative to sTRSVctl = 100) (log10 (% of sTRSVctl)); ligand: hypoxanthine (xanthine aptamer); higher = less ribozyme self-cleavage, higher mRNA level; settings: ligand concentration (+) RNA-Seq: 5 mM, HEK293T, reporter: mCherry (pCS4076), ligand present: yes
Procedure, shortened: (§1)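 Ribozyme switch library plasmids linked to reporters were introduced into HEK293T cells at 4 µg per 6-well well, with ligand, if any, added 1 h before. Total RNA was extracted with EDTA 72 h later, reverse-transcribed, amplified, barcoded and sequenced. RNA level was computed from RNA over DNA reads relative to a spiked-in non-cleaving sequence or the top sequences, then scaled and log-transformed. The top set was 25 sequences, values were ×100 and log10, and the cutoff was ≥100 DNA reads.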

hypoxanthine [2] = variants of: B1; assay: normalized RNA/DNA level without ligand (relative to sTRSVctl = 100) (log10 (% of sTRSVctl)); ligand: hypoxanthine (xanthine aptamer); higher = less ribozyme self-cleavage, higher mRNA level; settings: HEK293T, reporter: mCherry (pCS4076), ligand present: no
Procedure, shortened: as §1

Row | Variant | normalized RNA/DNA level with ligand (log10) (hypoxanthine [1]) | normalized RNA/DNA level without ligand (log10) (hypoxanthine [2])
1 | GCUGUCACCGGUGUAUUACCCUAGUGGUCGACCGGUCUGAUGAGUCUGUACGCAGACGAAACAGC [GUACGC] | 1.95 ± 0.033 | 1.84 ± 0.062
2 | GCUGUCACCGGUGUAUUACCCUAGUGGUCGACCGGUCUGAUGAGUCUGUACGAAGACGAAACAGC [GUACGA] | 1.91 ± 0.04 | 1.686 ± 0.0047
3 | GCUGUCACCGGUGUAUUACCCUAGUGGUCGACCGGUCUGAUGAGUCUAUAACGAGACGAAACAGC [AUAACG] | 1.87 ± 0.062 | 1.43 ± 0.11
4 | GCUGUCACCGGUGUAUUACCCUAGUGGUCGACCGGUCUGAUGAGUCUAUAACUAGACGAAACAGC [AUAACU] | 1.93 ± 0.034 | 1.88 ± 0.027
5 | GCUGUCACCGGUGUAUUACCCUAGUGGUCGACCGGUCUGAUGAGUCUUUACAAAGACGAAACAGC [UUACAA] | 1.96 ± 0.022 | 1.796 ± 0.012
6 | GCUGUCACCGGUGUAUUACCCUAGUGGUCGACCGGUCUGAUGAGUCUUUACAGAGACGAAACAGC [UUACAG] | 1.92 ± 0.029 | 1.63 ± 0.036
7 | GCUGUCACCGGUGUAUUACCCUAGUGGUCGACCGGUCUGAUGAGUCUCUAAGGAGACGAAACAGC [CUAAGG] | 1.91 ± 0.032 | 1.75 ± 0.046
8 | GCUGUCACCGGUGUAUUACCCUAGUGGUCGACCGGUCUGAUGAGUCUCUAAGAAGACGAAACAGC [CUAAGA] | 1.947 ± 0.013 | 1.838 ± 0.011
9 | GCUGUCACCGGUGUAUUACCCUAGUGGUCGACCGGUCUGAUGAGUCUGUAACUAGACGAAACAGC [GUAACU] | 1.94 ± 0.03 | 1.878 ± 0.005
10 | GCUGUCACCGGUGUAUUACCCUAGUGGUCGACCGGUCUGAUGAGUCUUUAACUAGACGAAACAGC [UUAACU] | 1.932 ± 0.017 | 1.841 ± 0.012
11 | GCUGUCACCGGUGUAUUACCCUAGUGGUCGACCGGUCUGAUGAGUCUCUAAUAAGACGAAACAGC [CUAAUA] | 1.87 ± 0.029 | 1.79 ± 0.026
12 | GCUGUCACCGGUGUAUUACCCUAGUGGUCGACCGGUCUGAUGAGUCUCUAAUUAGACGAAACAGC [CUAAUU] | 1.94 ± 0.043 | 1.869 ± 0.006
13 | GCUGUCACCGGUGUAUUACCCUAGUGGUCGACCGGUCUGAUGAGUCUUUAAGUAGACGAAACAGC [UUAAGU] | 1.936 ± 0.0026 | 1.847 ± 0.0087
14 | GCUGUCACCGGUGUAUUACCCUAGUGGUCGACCGGUCUGAUGAGUCUUUAAGCAGACGAAACAGC [UUAAGC] | 1.94 ± 0.023 | 1.837 ± 0.0055
15 | GCUGUCACCGGUGUAUUACCCUAGUGGUCGACCGGUCUGAUGAGUCUCUAACUAGACGAAACAGC [CUAACU] | 1.92 ± 0.033 | 1.869 ± 0.0023
16 | GCUGUCACCGGUGUAUUACCCUAGUGGUCGACCGGUCUGAUGAGUCUCUACGCAGACGAAACAGC [CUACGC] | 1.961 ± 0.011 | 1.913 ± 0.007
17 | GCUGUCACCGGUGUAUUACCCUAGUGGUCGACCGGUCUGAUGAGUCUCUACGAAGACGAAACAGC [CUACGA] | 1.97 ± 0.034 | 1.87 ± 0.034
18 | GCUGUCACCGGUGUAUUACCCUAGUGGUCGACCGGUCUGAUGAGUCUUUAAUUAGACGAAACAGC [UUAAUU] | 1.94 ± 0.041 | 1.84 ± 0.041
19 | GCUGUCACCGGUGUAUUACCCUAGUGGUCGACCGGUCUGAUGAGUCUUUAAUCAGACGAAACAGC [UUAAUC] | 1.95 ± 0.017 | 1.96 ± 0.058
20 | GCUGUCACCGGUGUAUUACCCUAGUGGUCGACCGGUCUGAUGAGUCUUUAAUGAGACGAAACAGC [UUAAUG] | 1.886 ± 0.0055 | 1.737 ± 0.0081
21 | GCUGUCACCGGUGUAUUACCCUAGUGGUCGACCGGUCUGAUGAGUCUGUACAUAGACGAAACAGC [GUACAU] | 1.9 ± 0.034 | 1.77 ± 0.056
